The source of these data is US5302370A, “Chelating agents for forming complexes with radioactive isotopes, metal complexes thereof and use thereof in diagnosis and therapy” (Institut fur Diagnostikforschung GmbH, priority 1989, dated 1994).

Series [1] relates to MX-1 human carcinoma (control, antigen not expressed). In words: Bio-distribution of a protein-bonded Tc-99m complex in hairless mice: antigen-negative MX-1 control tumour. It is filed as in vivo, human carcinoma in immune-deficient hairless mice. To be noted: MX-1 tumour (300-800 mg); 24 hours after i.v. 20 μg conjugate labelled with 200 μCi. As for the experimental part: (§1) The monoclonal antibody 17-1A was obtained by methods known in the literature, after application of 10^7 of the corresponding hybridoma cells to the abdominal cavity of a Balb/c-mouse and suction of the ascites fluid after 7-10 days. Purification was brough about likewise by methods known in the literature, by ammonium sulphate precipitation and affinity chromatography over protein A-sepharose. The purified antibody (10 mg/ml) was treated with 25 μg/ml pepsin at pH 3.5 for 2 hours and then isolated by FPLC. Before coupling to the chelating agent, the fragments were dialysed against 0.1M KH2 PO4 /0.1M NaHCO3, pH 8.5, at 4° C. for 12-24 hours. The protein concentration was adjusted to 10 mg/ml. A 5-fold molar excess of the NCS-containing chelating agent [Example 1] was dissolved in a minimum amount of the same buffer and added to the protein solution. […]
(§2) The bio-distribution of protein-bonded chelates will be described, using a conjugate of F(ab)2 fragments of the monoclonal antibody 17-1A and the compound [7] prepared in Example 1 as a model. […] The immune reactivity of the conjugates was 70-80% as determined by bonding to an excess of antigen in the cell. The bio-distribution 24 hours after administration of the conjugate was determined by killing the animals, removing the organs and measuring the radioactivity therein.

Series [2] can be described thus: Bio-distribution of a protein-bonded Tc-99m complex in tumour-bearing hairless mice: organs. It is filed as in vivo, immune-deficient hairless mice. To be noted: 24 hours after i.v. 20 μg conjugate labelled with 200 μCi. On the procedure: The monoclonal antibody 17-1A was obtained by methods known in the literature, after application of 10^7 of the corresponding hybridoma cells to the abdominal cavity of a Balb/c-mouse and suction of the ascites fluid after 7-10 days. Purification was brough about likewise by methods known in the literature, by ammonium sulphate precipitation and affinity chromatography over protein A-sepharose. The purified antibody (10 mg/ml) was treated with 25 μg/ml pepsin at pH 3.5 for 2 hours and then isolated by FPLC. Before coupling to the chelating agent, the fragments were dialysed against 0.1M KH2 PO4 /0.1M NaHCO3, pH 8.5, at 4° C. for 12-24 hours. The protein concentration was adjusted to 10 mg/ml. A 5-fold molar excess of the NCS-containing chelating agent [Example 1] was dissolved in a minimum amount of the same buffer and added to the protein solution. In order to form the conjugate, the mixture was incubated at 37° C. for 3 hours. Next, the conjugate was dialysed 24-48 hours against PBS (phosphate-buffered saline) with repeated change of buffer, and the protein concentration was re-adjusted to 10 mg/ml when necessary. Before labelling with Tc-99m, the conjugate could be kept in acid-cleaned glass vessels after sterile filtration at 4° C.
1 mg of the antibody fragment coupled to the chelating agent was labelled with TC-99m by adding 10 mCi pertechnetate solution (=1-2 ml) and 100 μg tin-II chloride in a solution of Na pyrophosphate (1 mg/ml) scavenged with argon or by ligand exchange e.g. by mixing the solution with a commercially obtainable glucoheptonate kit to which pertechnetate had been added.
(§3) The bio-distribution of protein-bonded chelates will be described, using a conjugate of F(ab)2 fragments of the monoclonal antibody 17-1A and the compound [7] prepared in Example 1 as a model. The antibody from which the fragments were obtained recognise an antigen expressed from the human carcinoma cell line "HT-29". […] Isolated cells from both lines were subcutaneously administered to immune-deficient hairless mice. After the tumours had grown to a size of 300-800 mg, the mice were intravenously given 20 μg of the chelate conjugate [Example 17] labelled with 200 μCi. The conjugates were first freed from low-molecular constituents by gel filtration on PD 10 columns manufactured by Messrs. Bio-Rad. The immune reactivity of the conjugates was 70-80% as determined by bonding to an excess of antigen in the cell. The bio-distribution 24 hours after administration of the conjugate was determined by killing the animals, removing the organs and measuring the radioactivity therein.

Series [3] deals with HT-29 human carcinoma (antigen-positive tumour). In words: Bio-distribution of a protein-bonded Tc-99m complex in hairless mice: antigen-positive HT-29 tumour. It is filed as in vivo, human carcinoma in immune-deficient hairless mice. As for the experimental part: as §1, §2
Series [4] has as its system antigen expressed from the human carcinoma cell line "HT-29". The series can be described thus: Immune reactivity of the conjugates by bonding to an excess of antigen in the cell. The series is classed as binding. To be noted: after gel filtration on PD 10. As for the experimental part: as §3
In general terms: SEC sorts molecules by how far they enter the pores of the column.

B1: conjugate of F(ab)2 fragments of the monoclonal antibody 17-1A and the compound [7]: conjugate of F(ab)2 fragments of the monoclonal antibody 17-1A and the compound [7] prepared in Example 1, … (conjugate, chains of the INN, looked up)
VH: QVQLQQSGAELVRPGTSVKVSCKASGYAFTNYLIEWVKQRPGQGLEWIGVINPGSGGTNYNEKFKGKATLTADKSSSTAYMQLSSLTSDDSAVYFCARDGPWFAYWGQGTLVTVSA
VL: NIVMTQSPKSMSMSVGERVTLTCKASENVVTYVSWYQQKPEQSPKLLIYGASNRYTGVPDRFTGSGSATDFTLTISSVQAEDLADYHCGQGYSYPYTFGGGTKLEIK
modifications: F(ab')2 chelate compound [7], Tc-99m label
Take B1: in series [1], the “% of applied dose per gram of tissue, MX-1” value is reported as 1.8 % of applied dose per gram of tissue. The “% of applied dose per gram of tissue, Blood” value in series [2] (blood) was 0.6 % of applied dose per gram of tissue. The “% of applied dose per gram of tissue, Kidneys” value in series [2] (kidneys) is given as 2.8 % of applied dose per gram of tissue. In addition, the “% of applied dose per gram of tissue, Liver” value in series [2] (liver) is listed as 1.2 % of applied dose per gram of tissue. In series [2] (lung), the “% of applied dose per gram of tissue, Lung” value was 0.8 % of applied dose per gram of tissue. Also, the “% of applied dose per gram of tissue, Muscle” value in series [2] (muscle) is on record as 0.1 % of applied dose per gram of tissue. In series [2] (spleen), the “% of applied dose per gram of tissue, Spleen” value was 0.3 % of applied dose per gram of tissue. In series [3] (24 hours after i.v. administration), the “concentration of the chelate in the antigen-positive tumour” value is on record as “marked concentration of the chelate in the antigen-positive tumour”. The “% of applied dose per gram of tissue, HT29” value in series [3] (HT29 tumour (300-800 mg), 24 hours after i.v. 20 μg conjugate labelled with 200 μCi) is recorded as 12.1 % of applied dose per gram of tissue. Also, in series [4], the “immune reactivity of the conjugates” value is given as 70-80%.
